The text below walks through data of article PMC5879678 (Proceedings of the National Academy of Sciences of the …, 2018).

The data set “AUC” concerns the molecule itself. The data set is described as follows: AUC.
Data set [1] concerns the molecule itself. The data set is described as follows: Thioflavin T fluorescence.

B1: TasA261 (mature secreted TasA, amino acids 28-261) (natural protein, Bacillus subtilis, UniProt P54507 28-261, looked up)
chain: AFNDIKSKDATFASGTLDLSAKENSASVNLSNLKPGDKLTKDFQFENNGSLAIKEVLMALNYGDFKANGGSNTSPEDFLSQFEVTLLTVGKEGGNGYPKNIILDDANLKDLYLMSAKNDAAAAEKIKKQIDPKFLNASGKVNVATIDGKTAPEYDGVPKTPTDFDQVQMEIQFKDDKTKDEKGLMVQNKYQGNSIKLQFSFEATQWNGLTIKKDHTDKDGYVKENEKAHSEDKN
modifications: 2H,13C,15N isotope labelling in the NMR samples
With B1, in the data set “AUC”, the stoichiometry N (usually the number of molecules, sites or subunits per partner or assembly) worked out at 12.

B2: TasA239 (TasA core domain, amino acids 28-239) (domain or fragment, Bacillus subtilis, UniProt P54507 28-239, looked up)
chain: AFNDIKSKDATFASGTLDLSAKENSASVNLSNLKPGDKLTKDFQFENNGSLAIKEVLMALNYGDFKANGGSNTSPEDFLSQFEVTLLTVGKEGGNGYPKNIILDDANLKDLYLMSAKNDAAAAEKIKKQIDPKFLNASGKVNVATIDGKTAPEYDGVPKTPTDFDQVQMEIQFKDDKTKDEKGLMVQNKYQGNSIKLQFSFEATQWNGLTIK
modifications: 2H,15N,13C isotope labelling in the NMR samples
Take B2: the binding result in data set [1] was “binds”.
